According to the supplement of paper PMC7877785:
± gives the uncertainty stated by the source.

Assay: self-splicing fitness, log relative to wild type (ln ratio); higher = more splicing; Tetrahymena group I intron in knt gene, E. coli kanamycin selection, DiMSum; sequences stand for … in CUCUCU…GGAGGGAAAAGUUAUCAGGCAUGCACCUGGUAGCUAGUCUUUAAACCAAUAGAUUGCAUCGGUUUAAAAGGCAAGACCGUCAAAUUGCGGGAAAGGGGUCAACAGCCGUUCAGUACCAAGUCUCAGGGGAAACUUUGAGAUGGCCUUGCAAAGGGUAUGGUAAUAAGCUGACGGACAUGGUCCUAACCACGCAGCCAAGUCCUAAGUCAACAGAUCUUCUGUUGAUAUGGAUGCAGUUCACAGACUAAAUGUCGGUCGGGGAAGAUGUAUUCUUCUCAUAAGAUAUAGUCGGACCUCUCCUUAAUGGGAGCUAGCGGAUGAAGUGAUGCAACACUGGAGCCGCUGGGAACUAAUUUGUAUGCGAAAGUAUAUUGAUUAGUUUUGGAGUACUCGUGGUCG
Procedure, shortened: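 Six replicate transformations of E. coli BL21(DE3) with a pET-22b(+) library were grown overnight at 37°C or 30°C. The library randomised all eight P1ex-region intron nucleotides, the intron lying in the knt kanamycin-resistance gene, and plates were LB agar with or without 25 μg/mL kanamycin plus 100 μg/mL carbenicillin, 50 μM IPTG and 0.2% rhamnose. Pooled colonies were amplicon-sequenced on an Illumina HiSeq 2500, and fitness is the DiMSum error-weighted combination of wild-type-normalised replicate fold changes, kanamycin versus none.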

Row | Sequence | self-splicing fitness (ln) (30 °C) | self-splicing fitness (ln) (37 °C)
1 | CCUGAGCAAUAUUACGGAGU | -3.26 ± 0.31 | -1.92 ± 0.18
2 | CCUGAGCAAUAUUACGGCAC |  | -2.23 ± 0.26
3 | CCUGAGCAAUAUUACGGCCG |  | -2.21 ± 0.4
4 | CCUGAGCAAUAUUACGGCGG | -2.37 ± 0.13 | -1.92 ± 0.17
5 | CCUGAGCAAUAUUACGGGAA | -2.46 ± 0.27 | -0.571 ± 0.29
6 | CCUGAGCAAUAUUACGGGAU | -3.46 ± 0.24 | -1.63 ± 0.2
7 | CCUGAGCAAUAUUACGGGCU | -2.51 ± 0.16 | -2.3 ± 0.32
8 | CCUGAGCAAUAUUACGGUCU |  | -3.78 ± 0.42
9 | CCUGAGCAAUAUUACGGUUG | -3.44 ± 0.13 | -1.3 ± 0.1
10 | CCUGAGCAAUAUUACGUAGU | -3.18 ± 0.14 | -1.21 ± 0.14
11 | CCUGAGCAAUAUUACGUCUA | -2.86 ± 0.31 | -1.69 ± 0.3
12 | CCUGAGCAAUAUUACGUUGA | -3.7 ± 0.26 | -3.27 ± 0.25
13 | CCUUAGCAAUAUUACGAAUA | -2.52 ± 0.27 | -2.21 ± 0.5
14 | CCUUAGCAAUAUUACGAAUU |  | -2.29 ± 0.49
15 | CCUUAGCAAUAUUACGACAA | -3.31 ± 0.2 | -3.02 ± 0.35
16 | CCUUAGCAAUAUUACGACAC | -2 ± 0.14 | -2.1 ± 0.25
17 | CCUUAGCAAUAUUACGACAG | -1.81 ± 0.11 | -0.864 ± 0.14
18 | CCUUAGCAAUAUUACGACUA |  | -2.23 ± 0.5
19 | CCUUAGCAAUAUUACGACUG | -2.26 ± 0.12 | -0.308 ± 0.096
20 | CCUUAGCAAUAUUACGAUGA | -3 ± 0.43 | -1.71 ± 0.28
21 | CCUUAGCAAUAUUACGCCCG | -1 ± 0.13 | -1.49 ± 0.21
22 | CCUUAGCAAUAUUACGCGAA | -4.02 ± 0.26 | -2.62 ± 0.29
23 | CCUUAGCAAUAUUACGCGAG | -4.2 ± 0.31 | -3.27 ± 0.28
24 | CCUUAGCAAUAUUACGCGCA | -2.45 ± 0.4 | -1.89 ± 0.34
25 | CCUUAGCAAUAUUACGCGCU | -3.13 ± 0.32 | -3.41 ± 0.42
26 | CCUUAGCAAUAUUACGCGGG | -3.22 ± 0.16 | -2.21 ± 0.2

Row | Sequence | self-splicing fitness (ln) (30 °C) | self-splicing fitness (ln) (37 °C)
27 | CCUUAGCAAUAUUACGGAAG | -2.61 ± 0.14 | -1.13 ± 0.14
28 | CCUUAGCAAUAUUACGGCUU | -3.99 ± 0.37 | -1.99 ± 0.2
29 | CCUUAGCAAUAUUACGGGGC | -3.39 ± 0.27 | -3.06 ± 0.32
30 | CCUUAGCAAUAUUACGGUGG | -2.71 ± 0.15 | -1.36 ± 0.15
31 | CCUUAGCAAUAUUACGUAAG | -1.28 ± 0.097 | -0.938 ± 0.12
32 | CGAAAGCAAUAUUACGAAAC | -2.85 ± 0.19 | -2.14 ± 0.21
33 | CGAAAGCAAUAUUACGAAAU | -2.32 ± 0.19 | -2.96 ± 0.24
34 | CGAAAGCAAUAUUACGAACG | -1.08 ± 0.13 | -0.291 ± 0.14
35 | CGAAAGCAAUAUUACGACAG | -0.552 ± 0.068 | -0.0312 ± 0.081
36 | CGAAAGCAAUAUUACGCACC | -1.17 ± 0.14 | -0.396 ± 0.19
37 | CGAAAGCAAUAUUACGCAUG | -1.56 ± 0.1 | -0.368 ± 0.11
38 | CGAAAGCAAUAUUACGCGAG | -2.88 ± 0.25 | -2.26 ± 0.22
39 | CGAAAGCAAUAUUACGGAUU | -3.5 ± 0.2 | -2.63 ± 0.19
40 | CGAAAGCAAUAUUACGGCAU | -2.26 ± 0.12 | -0.29 ± 0.089
41 | CGAAAGCAAUAUUACGGCCC | -1.42 ± 0.19 | -0.196 ± 0.35
42 | CGAAAGCAAUAUUACGGGAG | -3.09 ± 0.12 | -2.56 ± 0.13
43 | CGAAAGCAAUAUUACGGGCA | -1.85 ± 0.11 | -0.138 ± 0.1
44 | CGAAAGCAAUAUUACGGGGU | -3.65 ± 0.21 | -1.94 ± 0.18
45 | CGAAAGCAAUAUUACGGUGC | -3.09 ± 0.17 | -2.65 ± 0.21
46 | CGAAAGCAAUAUUACGGUGU | -2.55 ± 0.088 | -1.66 ± 0.11
47 | CGAAAGCAAUAUUACGUCUG | -0.362 ± 0.066 | 0.364 ± 0.078
48 | CGAAAGCAAUAUUACGUGAA | -2.52 ± 0.092 | -1.17 ± 0.12
49 | CGAAAGCAAUAUUACGUGUU | -4.1 ± 0.18 | -2.54 ± 0.17
50 | CGAAAGCAAUAUUACGUUAA | -2.27 ± 0.15 | -1.42 ± 0.12
51 | CGAAAGCAAUAUUACGUUGG | -1.66 ± 0.08 | -0.961 ± 0.097
52 | CGACAGCAAUAUUACGAAGA | -2.29 ± 0.17 | -2.09 ± 0.16

Row | Sequence | self-splicing fitness (ln) (30 °C) | self-splicing fitness (ln) (37 °C)
53 | CGACAGCAAUAUUACGAAGU | -4.32 ± 0.37 | -3.18 ± 0.43
54 | CGACAGCAAUAUUACGACAC | -1.96 ± 0.13 | -1.97 ± 0.22
55 | CGACAGCAAUAUUACGACCG | -0.981 ± 0.1 | 0.0442 ± 0.18
56 | CGACAGCAAUAUUACGACGU | -1.07 ± 0.07 | 0.0477 ± 0.086
57 | CGACAGCAAUAUUACGAGCG | -2.02 ± 0.13 | -0.549 ± 0.099
58 | CGACAGCAAUAUUACGAUUU | -2.34 ± 0.075 | -1.26 ± 0.087
59 | CGACAGCAAUAUUACGCACG | -3.74 ± 0.4 | -2.31 ± 0.35
60 | CGACAGCAAUAUUACGGCAA | -2.12 ± 0.21 | -1.58 ± 0.17
61 | CGACAGCAAUAUUACGGUGG | -1.73 ± 0.097 | -0.756 ± 0.1
62 | CGACAGCAAUAUUACGUAGG | -0.919 ± 0.062 | -0.934 ± 0.076
63 | CGACAGCAAUAUUACGUCGC | -3.71 ± 0.25 | -3.74 ± 0.33
64 | CGACAGCAAUAUUACGUCGU | -4.07 ± 0.19 | -2.29 ± 0.11
65 | CGACAGCAAUAUUACGUCUG | -1.54 ± 0.083 | -0.38 ± 0.092
66 | CGACAGCAAUAUUACGUGGU | -3.79 ± 0.18 | -3.34 ± 0.17
67 | CGACAGCAAUAUUACGUUAA | -3.04 ± 0.22 | -2.19 ± 0.18
68 | CGACAGCAAUAUUACGUUGU | -3.46 ± 0.1 | -3.25 ± 0.15
69 | CGAGAGCAAUAUUACGAAGG | -3.4 ± 0.22 | -2.69 ± 0.32
70 | CGAGAGCAAUAUUACGACGC | -1.91 ± 0.42 | 
71 | CGAGAGCAAUAUUACGACGG | -0.704 ± 0.16 | -0.616 ± 0.18
72 | CGAGAGCAAUAUUACGACGU | -2.81 ± 0.22 | -3.04 ± 0.43
73 | CGAGAGCAAUAUUACGAUGA | -2.11 ± 0.28 | -1.27 ± 0.25
74 | CGAGAGCAAUAUUACGAUGG | -3.15 ± 0.2 | -0.694 ± 0.16
75 | CGAGAGCAAUAUUACGCACG | -3.55 ± 0.29 | -1.76 ± 0.3
76 | CGAGAGCAAUAUUACGCAUA | -2.12 ± 0.44 | -1.44 ± 0.49
77 | CGAGAGCAAUAUUACGCGGA | -2.34 ± 0.37 | -1.37 ± 0.19
